Test results reported in the supplement of paper PMC9170038.

System: K4 kissing-loop RNA reporter
Test: apparent KD of K4 kissing-loop reporter; higher = weaker reporter binding
Conditions: Eterna round: R107
Description: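 RNA-MaP round R107: designed RNA switches with theophylline, tryptophan, arginine or FMN aptamers are transcribed on-chip within common flanks. They are titrated with a labelled K4 kissing-loop RNA reporter in RNA-MaP buffer (100 mM Tris pH 7.5, 80 mM KCl, 4 mM MgCl2), without ligand or with the indicated ligand. Median apparent KD per design.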

[1] = input ligand: theophylline 20 uM
[2] = input ligand: tryptophan 2.4 mM
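Note: bound reporter read as fluorescence of individual clusters on recovered sequencing chips by microscopy, with normalized cluster intensities fitted with a binding model.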

Row | Sequence | apparent KD of K4 kissing-loop reporter (input ligand: FMN 200 uM) [nM] | apparent KD of K4 kissing-loop reporter (input ligand: arginine 13.2 mM) [nM] | apparent KD of K4 kissing-loop reporter (input ligand: none) [nM] | apparent KD of K4 kissing-loop reporter [1] [nM] | apparent KD of K4 kissing-loop reporter [2] [nM]
1 | UUUUAAUGCAGUGAUGUUGCUAAUAAAACAGAGGAUAUGCAUGGAAGCAGAAGGCUGAAAUAUUAUACUUUAAUAAAUUAUAUUU [JR_SSFMNA_Sub010] | 71.2 | 116 | 78.8 | 119 | 66.6
2 | AGCGAGUGAUGUUCGCUGAUCAUGAGAAGUUAGGAUAUAUACUUGCAUAGAAGGAACUAUUUCAUGACAUUAGAGGCAGUAGUUC [FMN A SS t7] | 159 | 160 | 158 | 152 | 125
3 | AGACUUCACCGAAGGAGCGACGUGGCCUAGUGAUGUUAGGCACGAGAGAAAUCUCGUGUACGUCAGGUAGGUCGCGGUGAAGUCA [Omei KL Arginine B SS C v7] | 909 | 648 | 939 | 862 | 816
4 | UUGGCUGGACGGGAUACCAGCCAAAUCGUGUGCUUAGGAUGUCUAAGAGCCAGUGAUGUUGGCCCUUGGCAGCCCUCCUAGCUUG [Ordigear] | 154 | 115 | 138 | 124 | 136
5 | GGCAUGCGUAGAGUGAUGUUCUAAGAUGAUACCAGUGCGGAAACGCACCCUUGGCAGCAUCUGACGAGCAUGCCGGCGAAAGCCU | 792 | 586 | 814 | 607 | 771
6 | AAAUAUUCGAGUGAUGUUCGAAUAAUAUCAGAGGAUAUGCAUAAAAGCAGAAGGCUGUAUUACUUUUUGUUACGAAAUUUUAUAA [JR_SSFMNA_Sub020] | 111 | 115 | 102 | 118 | 115
7 | CGAGUACAUUGCGAUACCAGCGAUAGCAGUUCAACGCGCAGUCCGUUUAGUGAUGUUAGACGCCCUUGGCAGCGCUUCCUGGCAA [theeternabot_exclusion_KL_Theo_B_44] | 519 | 324 | 460 | 520 | 393
8 | AUUAUAAAGUCGGCCGCCACUGAGAGUAGUGAUGUUACUCUUUUCCUUUAGAUAUUAUAUUUUAUCAGGACCGGGACAUCAGAUU [JR_ExcTryptoB_Sub020] | 198 | 170 | 208 | 180 | 162
9 | GGACAAGCAUUAGGAUAUAUAGAGCGAAACGCAAUUGAGUGAUGUUCAAAAGCAUAGGGCGAGGAAAUAGAAGGAAUGCACGGGC [Default title] | 192 | 180 | 216 | 151 | 152
10 | UCGGAGGGAGCGGCCGCCACUGUAUUACCUCGACGAACGCCGGUUUUCAUGAAGUGAUGUUUCGCCAGGACCGGGCUAAUCUGAG [theeternabot_exclusion_KL_Trp_B_46] | 244 | 202 | 235 | 217 | 206
11 | AGUGUACAGUCGGCCGCCACUCACUCCUCCUGCGUUAACGAGUGAUGUUUGUUUUUUAGUGGUACGAGGACCGGGACUUCUCUGA [theeternabot_sameState_KL_Trp_B_35] | 237 | 118 | 275 | 245 | 260
12 | AAAUGUUUGUAUUUGAACAAUUUCCUUAGAGAGGAUAUUGGUAAUACAAGAAGGCUCUGAUGGGAGUGAUGUUCCCAUAACGCGG [Exclusion FMN A GF14] | 110 | 114 | 119 | 126 | 91
13 | GGAAAGCCAGUGAUGUUGGCAUAAACUGAAGGAGCGCGUGAAAACGCAGGUAGGUCGCAGAACCUUGCCAACUAUAUUAUUUACC [Ex Arginine A K4 21] | 128 | 221 | 160 | 221 | 135
14 | UGUCAUUGGUCGGCCGCCACUAUAUAAAAGAGUGAUGUUCUAAAGACGGAUCGAAAGAUCUGUCAUAGGACCGGGACCGAUGACU [TrypBS 20 #SwitchBubble #StaticStem] | 293 | 204 | 308 | 294 | 1140
15 | UAAAAUAAAUAAUAGAGAGCGUUACUCGAAGGAGCGACGAAUUCGUCAGGUAGGUCGCGAGUGAUGUUCGCAAAUACGCUCUCAU [AK2 Exc Arginine A] | 838 | 655 | 850 | 696 | 682
16 | CCUAUCUCAUACGAUACCAGUCUACGAUAUUUUAUCGUUGCCAUCACCGAGUGAUGUUCGGACCCUUGGCAGCGUAUGGGAUAGG [Ex Theophylline B K4 5] | 340 | 277 | 355 | 544 | 346

Row | Sequence | apparent KD of K4 kissing-loop reporter (input ligand: FMN 200 uM) [nM] | apparent KD of K4 kissing-loop reporter (input ligand: arginine 13.2 mM) [nM] | apparent KD of K4 kissing-loop reporter (input ligand: none) [nM] | apparent KD of K4 kissing-loop reporter [1] [nM] | apparent KD of K4 kissing-loop reporter [2] [nM]
17 | GUUACGCAUGGAAGGAGCGCUCUCAGGCUUAAUAACACAGUGAUGUUGUGAAUUUGCCUAAAGCAGGUAGGUCGCCAUGUGUAAC [Ex Arginine B K4 9] | 426 | 400 | 440 | 423 | 392
18 | CAUAAAAGGUGGAAGACGAAUCGGUGUCGCCGAGGACCGGUACGGCCGCCACUCGGUCAUCAAAUCCUUCCCGAGUGAUGUUCGA [theeternabot_sameState_KL_Trp_A_5] | 382 | 439 | 501 | 444 | 258
19 | CCAUCGCUAUUCGAUACCAGCUCCUUAGUGAUGUUAAGGUUUUACGCUCUGUAGGAGCGAAGCCCUUGGCAGCGAGUAGUGAUGG [#04 K4 Theophylline B Same State] | 1120 | 832 | 1060 | 716 | 1110
20 | ACGCGCGCGAGUGAUGUUCGGAGCGGCUGGCAGGAUAUGUAGCAAUGCAGAAGGGUCGUGGCGGUGGGCGCGCAAGCGGCUGCCG [#2 Exclusion - FMN A Attempt #12 (HarryS)] | 187 | 318 | 396 | 399 | 371
21 | CAUACGCAUGGAGGAUAUGAGAUUUCUCAUAUUAUUUAAUAUUCUCAGUGAUGUUGAGAAUUAAACUCAGAAGGCCAUGUGUAUG [Ex FMN B 4] | 296 | 149 | 164 | 181 | 163
22 | AAGUGUGUGGCGGCCGCCACUAGAAUCCAGUGAUGUUGGAGUAAUCAAAUAAAUAAUAAUAAACAUAGGACCGGGCCAUAUAGAA [Same State - Tryptophan B (Freestyle 2)] | 154 | 138 | 147 | 134 | 129
23 | GAUGUUUGCCGAAGGAGCGAGUAUUCGCCAGUGAUGUUGGUGAGAUAUACACGUAUCAGUGCUCAGGUAGGUCGCGGCGCUUGUU [Same State Arginine B GF 27] | 123 | 107 | 129 | 135 | 117
24 | AGUUUAGAGUGACUCGAUAAGAGUCACAAACGAGGACCGGUACGGCCGCCACUCGAAAUAACGAGAGUGAUGUUCUCGCUGGGCA [FiskerMod 3 - Jieux - Same State Tryptophan A] | 332 | 377 | 458 | 384 | 126
25 | UGGAGUUGACGAAAAGUCAACUCCCGAGAAGGAGCGGACGAAAGUCCAGGUAGGUCGCUCGCUACCAGUGAUGUUGGUACGUAAA | 107 | 143 | 116 | 139 | 101
26 | GUAUGUGGAAACACGUACUUAUAUCCUAAGCAGGAUAUGCGGAAACGCAGAAGGGCUACCAACGAGUUUACCCAGUGAUGUUGGG [Ex FMN A 14] | 275 | 260 | 320 | 288 | 296
27 | AUUAAUAACAGAGGAUAUGCAUUAUUAUUAUUUUUAAAUAAUAAAUGCAGUGAUGUUGCAUAUUAAGCAGAAGGCUGAUUUAUUU [JR_SSFMNB_Sub011] | 137 | 516 | 484 | 439 | 353
28 | AGUUCAGAGUGACUCGAUAAGAGUCACAAACGAGGACCGGUACGGCCGCCACUCGAAAUAACGAGAGUGAUGUUCUCGCUGGGCA [FiskerMod 2 - Jieux - Same State Tryptophan A] | 726 | 674 | 862 | 824 | 244
29 | GAUUCUGUUCGAAAGAACGGAAUCUCGGAAGGAGCGAGAGAAAUCUCAGGUAGGUCGCCGAAUUUUUGAUAGUGAUGUUAUCAUU [Arginine A K4 3] | 432 | 380 | 441 | 393 | 397
30 | UUGCUUCUACUAGGAUAUCAUCAGUCAUGUUCAAUGACACUCGAGUGAUGUUCGAUAGAAGCGAGAUGAGAAGGAGUACAAGCAG [FMB B SS t3] | 374 | 48.8 | 159 | 118 | 70.7
31 | GGUGCUGUCUGUGCCGCCCUCCUCGUCCCUCGAGGACCGGUACGGCCGCCACUCGAGUGAUGUUCGGGUAGCCCUCCCUGCCAGC [BDazzled - #21 Exc. Tryptophan A] | 493 | 402 | 548 | 438 | 492
32 | UUCUACGAGUGAUGUUCGUAGUGUAAUAGCUAGGAUAUCGUUUUUUCGAGAAGGAGCUUCGAAGUGAUACGAAAGUAUCGCUUCG [FMN A 12] | 227 | 369 | 349 |  | 264
